In publication PMC7948760 one finds stoichiometry N, Kd and Ki data, which are given here for three substances.

pKd, pKi: −log10 of the molar value. Read-outs that look alike come from different tables or passages of the source. Bounds are passed on as bounds.

Assay [1] has as its target OG488-TFPIα-BR, TFPIα-BR modified with Oregon Green488 maleimide (human). Put plainly: fluorescence polarisation; steady-state anisotropy; FV species (0–100 nM) titrated into 20 nM OG488-TFPIα-BR and 50 μM PCPS, assay buffer (20 mM HEPES, 0.15 M NaCl, 5 mM CaCl2, 0.1% PEG 8000, pH 7.4), 25 °C; fit to independent, noninteracting sites.
Assay [2] has as its target TFPIα (Homo sapiens) (UniProt P10646). The assay is described as follows: SPR. The settings on record: cited from earlier work.
In assay [3] the target is FV-short-QQ (FV-short with Arg709 and Arg1545 replaced with Gln) (human). Put plainly: fluorescence polarisation; competition: unlabeled TFPIα-BR (0–2 μM) or TFPIα (0–1 μM) titrated into 25 nM OG488-TFPIα-BR, 20 nM FV-short-QQ and 50 μM PCPS, assay buffer, 25 °C; stoichiometry of 1 assumed.
The target of assay [4] is activated factor V (FVa) (human) (UniProt P12259). Put plainly: inhibition of prothrombinase (prothrombin activation assay); 0.1 nM cofactor species, 50 μM PCPS, 1.4 μM prothrombin, 3 μM DAPA, TFPIα 0–500 nM with a twofold excess of anti-K2 antibody to block FXa inhibition, started with 2 nM FXa, assay buffer, 25 °C; Ki from the equation for competitive inhibition.
For assay [5], the target named is FV-short-QR∗ (FV-short-QR precleaved at Arg1545 with RVV-V) (human) (UniProt P12259). The description is as above.
For assay [6], the target named is FV-short (factor V isoform with B-domain residues 756 to 1458 deleted) (human). The description is as above.
The target in assay [7] is FV-short-QQ (FV-short with Arg709 and Arg1545 replaced with Gln) (human). The description is as above.
Assay [8] has as its target FV-short-RQ∗ (FV-short-RQ precleaved at Arg709 with thrombin) (human) (UniProt P12259). The assay is described as above.
Assay [9] has as its target FV-short (factor V isoform with B-domain residues 756 to 1458 deleted) (human). The assay is described as above. The source holds these as a separate data set.
The target of assay [10] is FV-short-QQ (FV-short with Arg709 and Arg1545 replaced with Gln) (human). The assay is described as above. The source holds these as a separate data set.
Assay [11] has as its target FV-short-RQ∗ (FV-short-RQ precleaved at Arg709 with thrombin) (human) (UniProt P12259). Described as above. The source holds these as a separate data set.

FV-short-RQ∗ (FV-short-RQ precleaved at Arg709 with thrombin) (human), sequence (P12259 29-737, chain 1 of 2): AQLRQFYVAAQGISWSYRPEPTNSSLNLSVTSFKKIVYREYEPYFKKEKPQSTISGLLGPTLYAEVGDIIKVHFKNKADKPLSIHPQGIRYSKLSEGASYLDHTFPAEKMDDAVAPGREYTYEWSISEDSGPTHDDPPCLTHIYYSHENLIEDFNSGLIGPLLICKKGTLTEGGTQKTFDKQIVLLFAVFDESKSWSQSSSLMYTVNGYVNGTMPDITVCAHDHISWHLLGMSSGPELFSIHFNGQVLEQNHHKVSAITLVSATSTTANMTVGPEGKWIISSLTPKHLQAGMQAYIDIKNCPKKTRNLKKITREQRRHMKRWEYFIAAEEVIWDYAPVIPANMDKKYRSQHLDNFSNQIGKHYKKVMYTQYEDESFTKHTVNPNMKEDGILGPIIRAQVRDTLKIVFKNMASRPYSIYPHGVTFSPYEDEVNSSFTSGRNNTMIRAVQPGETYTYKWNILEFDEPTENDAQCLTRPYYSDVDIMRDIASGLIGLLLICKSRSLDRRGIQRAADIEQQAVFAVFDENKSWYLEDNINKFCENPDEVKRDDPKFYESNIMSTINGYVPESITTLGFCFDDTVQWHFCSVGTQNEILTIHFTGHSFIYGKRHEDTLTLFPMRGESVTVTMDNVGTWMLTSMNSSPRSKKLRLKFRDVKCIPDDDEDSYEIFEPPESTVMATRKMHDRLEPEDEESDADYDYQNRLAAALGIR
FV-short-RQ∗ (FV-short-RQ precleaved at Arg709 with thrombin) (human), sequence (P12259 other isoform, or with tags, fused parts or gaps, chain 2 of 2): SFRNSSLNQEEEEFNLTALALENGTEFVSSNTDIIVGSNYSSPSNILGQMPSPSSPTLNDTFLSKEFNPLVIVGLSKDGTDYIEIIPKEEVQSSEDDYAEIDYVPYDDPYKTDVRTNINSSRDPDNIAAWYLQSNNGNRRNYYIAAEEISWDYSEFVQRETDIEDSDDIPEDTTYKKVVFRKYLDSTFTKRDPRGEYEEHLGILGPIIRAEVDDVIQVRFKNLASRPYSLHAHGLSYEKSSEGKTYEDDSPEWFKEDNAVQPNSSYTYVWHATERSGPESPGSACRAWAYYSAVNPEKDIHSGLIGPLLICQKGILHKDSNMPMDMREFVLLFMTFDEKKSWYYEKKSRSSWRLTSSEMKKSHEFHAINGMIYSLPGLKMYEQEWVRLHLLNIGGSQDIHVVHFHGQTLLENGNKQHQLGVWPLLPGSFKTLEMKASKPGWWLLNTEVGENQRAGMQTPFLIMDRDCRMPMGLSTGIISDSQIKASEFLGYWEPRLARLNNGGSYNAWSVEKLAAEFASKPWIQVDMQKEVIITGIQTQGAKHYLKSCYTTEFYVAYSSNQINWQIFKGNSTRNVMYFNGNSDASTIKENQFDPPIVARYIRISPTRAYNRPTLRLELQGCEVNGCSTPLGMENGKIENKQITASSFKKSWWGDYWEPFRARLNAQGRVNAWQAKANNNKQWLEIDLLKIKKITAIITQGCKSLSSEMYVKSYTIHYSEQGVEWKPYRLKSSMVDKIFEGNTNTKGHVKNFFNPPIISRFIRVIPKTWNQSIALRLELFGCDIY
FV-short-QR∗ (FV-short-QR precleaved at Arg1545 with RVV-V) (human), sequence (P12259 other isoform, or with tags, fused parts or gaps, chain 1 of 2): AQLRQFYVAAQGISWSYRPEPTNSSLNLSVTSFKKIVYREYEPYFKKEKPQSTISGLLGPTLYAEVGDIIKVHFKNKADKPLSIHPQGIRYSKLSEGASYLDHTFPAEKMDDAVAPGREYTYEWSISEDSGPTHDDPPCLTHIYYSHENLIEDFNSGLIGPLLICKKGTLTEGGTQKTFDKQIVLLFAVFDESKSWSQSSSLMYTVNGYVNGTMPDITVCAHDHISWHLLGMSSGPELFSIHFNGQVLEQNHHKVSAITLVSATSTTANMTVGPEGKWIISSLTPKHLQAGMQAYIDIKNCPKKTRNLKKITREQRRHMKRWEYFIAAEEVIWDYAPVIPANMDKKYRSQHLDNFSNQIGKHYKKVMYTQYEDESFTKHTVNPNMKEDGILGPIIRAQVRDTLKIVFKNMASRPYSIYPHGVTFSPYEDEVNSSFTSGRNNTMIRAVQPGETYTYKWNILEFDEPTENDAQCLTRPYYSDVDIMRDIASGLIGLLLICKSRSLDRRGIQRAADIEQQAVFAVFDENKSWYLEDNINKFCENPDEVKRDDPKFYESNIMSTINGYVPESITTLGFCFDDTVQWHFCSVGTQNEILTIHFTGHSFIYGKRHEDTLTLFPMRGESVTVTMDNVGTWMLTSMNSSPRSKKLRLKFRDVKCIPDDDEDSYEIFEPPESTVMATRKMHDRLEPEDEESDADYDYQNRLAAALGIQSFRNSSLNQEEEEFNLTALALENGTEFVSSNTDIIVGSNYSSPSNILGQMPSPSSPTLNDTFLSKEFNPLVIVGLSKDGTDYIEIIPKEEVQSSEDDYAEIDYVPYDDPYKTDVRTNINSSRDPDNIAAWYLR
FV-short-QR∗ (FV-short-QR precleaved at Arg1545 with RVV-V) (human), sequence (P12259 1574-2224, chain 2 of 2): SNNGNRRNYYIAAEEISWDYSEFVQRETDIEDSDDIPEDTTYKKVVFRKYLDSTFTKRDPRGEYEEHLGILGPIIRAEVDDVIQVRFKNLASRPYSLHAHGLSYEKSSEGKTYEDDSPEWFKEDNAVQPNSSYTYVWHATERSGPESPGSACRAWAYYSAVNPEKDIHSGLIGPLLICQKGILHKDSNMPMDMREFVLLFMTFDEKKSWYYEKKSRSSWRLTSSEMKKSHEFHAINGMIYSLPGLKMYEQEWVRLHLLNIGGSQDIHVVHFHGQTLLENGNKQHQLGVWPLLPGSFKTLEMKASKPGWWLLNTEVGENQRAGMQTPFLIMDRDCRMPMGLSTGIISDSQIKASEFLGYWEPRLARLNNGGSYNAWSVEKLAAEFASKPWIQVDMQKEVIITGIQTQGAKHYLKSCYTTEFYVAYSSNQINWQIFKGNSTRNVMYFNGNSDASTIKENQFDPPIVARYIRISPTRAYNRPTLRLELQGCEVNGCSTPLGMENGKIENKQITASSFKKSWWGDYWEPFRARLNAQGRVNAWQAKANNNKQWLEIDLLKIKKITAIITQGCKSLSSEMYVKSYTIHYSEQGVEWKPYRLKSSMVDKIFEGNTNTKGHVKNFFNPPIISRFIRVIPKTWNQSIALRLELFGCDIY
activated factor V (FVa) (human), sequence (P12259 29-737, chain 1 of 2): as the sequence (P12259 29-737, chain 1 of 2) above
activated factor V (FVa) (human), sequence (P12259 1574-2224, chain 2 of 2): as the sequence (P12259 1574-2224, chain 2 of 2) above
TFPIα (Homo sapiens), sequence (P10646 29-304): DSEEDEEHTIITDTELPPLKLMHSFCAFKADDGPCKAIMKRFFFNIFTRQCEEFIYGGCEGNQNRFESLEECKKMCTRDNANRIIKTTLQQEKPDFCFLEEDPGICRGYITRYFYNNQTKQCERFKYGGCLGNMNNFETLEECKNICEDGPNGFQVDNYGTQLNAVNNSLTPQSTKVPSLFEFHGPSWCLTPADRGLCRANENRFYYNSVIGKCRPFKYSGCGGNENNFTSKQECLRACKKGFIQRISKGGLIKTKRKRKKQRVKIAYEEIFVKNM
factor V, sequence (P12259 1574-2224): as the sequence (P12259 1574-2224, chain 2 of 2) above

By stoichiometry N is commonly meant the number of molecules, sites or subunits per partner or assembly. With “FV-short (factor V isoform with B-domain residues 756 to 1458 deleted) (natural protein)”, in [1], the stoichiometry N turned out to be 1.25.
As usually defined, the pKd is the negative decadic logarithm of the Kd, by convention in mol/L. As to factor V (from UniProt P12259), the pKd in assay [2] was 7.89.
One may read the pKi as the Ki on a negative log10 scale, so that one unit is a factor of ten. A lower pKi goes with a large Ki. “tissue factor pathway inhibitor alpha (TFPIα), full-length (from UniProt P10646-1 29-304) (natural protein)” had a pKd in assay [3] of 9.14. Also, the pKi in assay [4] was less than 6.30; in assay [5], less than 6.30; in assay [6] it was 9.64; in assay [7], 9.96; in [8], 9.62; in [9], 9.85. Also, the figures for the pKi in [10] and in assay [11] were 10.00 and 9.59, respectively.
